Assay results from US10052364B2, “Osteocalcin as a treatment for cognitive disorders” (THE TRUSTEES OF COLUMBIA UNIVERSITY IN THE CITY OF NEW YORK, priority 2013, dated 2018).

What was measured:
Assay type in all cases: in vivo, mouse
Osteocalcin-/- mice = experiment: Intracerebro-ventricular (ICV) infusion in Osteocalcin-/- mice, behavioral tests
Description: FIG. 4. Administration of osteocalcin prevents anxiety and depression. (A-E) Behavioral analyses of adult Osteocalcin^−/− mice receiving osteocalcin through intracerebro-ventricular (ICV) infusions. (A) Light and Dark test, (B) Elevated plus maze test, (C) Open field test, (D) Forced swim test, and (E) Tail suspension test performed in a cohort of WT (n=7) and Osteocalcin^−/− infused with vehicle or osteocalcin (10 ng/hour). In each set of three bars, the rightmost bar represents the results following administration of osteocalcin.
Osteocalcin^−/−, Gprc6a^−/−, Osteocalcin-mCherry, and Osteocalcin floxed mice have been previously described (Ducy et al., 1996, Nature 382:448-452; Oury et al., 2011, Cell 144:796-809). Mouse genotypes were determined by PCR. For all experiments, controls were littermate female WT, Cre-expressing, or flox/flox. All mice were maintained on a pure 129-Sv genetic background except for the inducible deletion Osteocalcin model (mix background: 25% C57/BL6 and 75% 129sv). […] Leptin and osteocalcin content in sera and tissues were determined by ELISA.
Tail suspension testing was performed as previously described (Mayorga et al., 2001, J. Pharmacology Exper. Therapeutics 298:1101-1107; Stem et al., 1985, Psychopharmacology 85:367-370). […] The parameter recorded was the number of seconds spent immobile. Mice were scored by a highly trained observer, over a 5 min period, blind to the genotype of the mice.
Anxiety and locomotor activity of mice were measured using the open field test (David et al., 2009, Neuron 62:479-493). […] Mice were monitored throughout each test session by video tracking and analyzed using Matlab software. […] The overall motor activity was quantified as the total distance travelled. The anxiety was quantified measuring the number of rearings and the time and distance spent in the center versus periphery of the open field chamber (in %).
Each mouse was allowed to explore the apparatus for 5 min. Global activity was assessed by measuring the number of entries […] (David et al, 2009, Neuron 62:479-493). […]

WT mice = experiment: ICV infusion in adult WT mice, D/LT and EPMT tests; conditions: ICV 3 or 10 ng/hour for one month
Description: FIG. 8. Osteocalcin improves cognitive function in adult wild-type (WT) mice. Results from dark and light (DLT) and elevated plus maze tests (EPMT) performed in 3-month old WT mice infused ICV with vehicle (PBS) or Ocn (3, 10, 30 ng/hour) are shown. (A) DLT measuring the latency to enter, the number of entries, and the time spend in lit compartment. (B) EPMT measuring the number of entries into open arms and the time spend in lit compartments.
Each mouse was allowed to explore the apparatus for 5 min. Global activity was assessed by measuring the number of entries […] (David et al, 2009, Neuron 62:479-493). Anxiety was assessed by comparing the time spent in the open arms.
The test was performed in a quiet, darkened room. Mice were individually housed in cages containing a handful of bedding from their home cage and acclimated to the room at least 1 h before the test. Naïve mice were placed individually in the testing chamber in the dark compartment. The test was 5 min in duration, and time spent and number of entries in light compartments were recorded a highly trained observer, blind to the genotype of the mice. […]

[1] = Acute stereotactic injection into the hippocampus, pCREB and PKA immunofluorescence; conditions: 10 ng into hippocampus, 16 h post injection
Description: (§1) FIG. 10. Osteocalcin administration results in CREB phosphorylation. (A) p-CREB immunofluorescence (IF) in the dentate gyms (DG) of WT and Ocn−/− hippocampal region. (B) p-CREB IF in WT brain sections following a dual stereotactic injection of vehicle (PBS) (on the left) or Ocn (10 ng) (on the right) in the hippocampus. The arrows point toward the DG. (C) PKA IF in WT brain sections following a dual stereotactic injection of vehicle (PBS) (on the right) or Ocn (10 ng) (on the left) in the hippocampus.
(§2) The resulting effects on animal behavior of direct recombinant uncarboxylated osteocalcin delivery raise the question of the molecular mechanism of action of osteocalcin in the brain. Given that osteocalcin acts through a G-protein coupled receptor pathway in other tissues, e.g., pancreas and testis, the phosphorylated CREB levels in the hippocampi of Ocn−/− and WT animals was checked. […] The hippocampus is essential for optimal spatial learning and memory in rodents. It was then asked whether the acute stereotactic injection of 10 ng of recombinant uncarboxylated osteocalcin directly into the hippocampus of WT animals would affect pCREB levels. At 16 h post injection, pCREB staining was increased in the hemisphere injected with osteocalcin versus the one injected with PBS in the same animal (FIG. 10B).

[2] = tested on: CREB phosphorylation in the hippocampus; experiment: as above; conditions: 10 ng into hippocampus of WT animals, 16 h post injection
Description: as §1, §2

B1: uncarboxylated osteocalcin: Recombinant osteocalcin bacterially produced, cleaved from the GST subunit; completely undercarboxylated at all three sites (protein, listed as Homo sapiens)
chain: MRALTLLALLALAALCIAGQAGAKPSGAESSKGAAFVSKQEGSEVVKRPRRYLYQWLGAPVPYPDPLEPRREVCELNPDCDELADHIGFQEAYRRFYGPV
modifications: uncarboxylated
notes: Recombinant osteocalcin bacterially produced, cleaved from the GST subunit; completely undercarboxylated at all three sites
leakage of centrally delivered hormone into the general circulation (osteocalcin in blood) (Osteocalcin-/- mice; ICV 10 ng/hour, infused Osteocalcin-/- mice): no leakage
anxiety and depression features (DLT, EPMT, OFT, FST, TST) (Osteocalcin-/- mice; ICV 10 ng/hour, week-long treatment, Osteocalcin-/- mice): corrected the anxiety and depression features
defects in anxiety, depression, learning, and memory (Osteocalcin-/- mice; direct administration to the brains of adult Osteocalcin-/- mice): rescued defects in anxiety, depression, learning, and memory
exploration of the lit compartment and open arms in D/LT and EPM tests (WT mice; WT mice): increase in the exploration
anxiety-like behavior (D/LT and EPMT) (WT mice; WT mice implanted at 2 months): decrease in anxiety-like behavior
PKA staining in the injected hemisphere [1]: widespread and dramatic increase
pCREB staining in injected hemisphere versus PBS hemisphere [2]: increased
